Experimental data as given in the Human Domainome abundance scans (Beltran et al. 2025).
± gives the uncertainty stated by the source.

B1: GA-binding protein alpha chain, residues 172 to 250; numbered along this chain, Q06546 (parent)
chain: GYRKEQERLGIPYDPIQWSTDQVLHWVVWVMKEFSMTDIDLTTLNISGRELCSLNQEDFFQRVPRGEILWSHLELLRKY

Variants of: B1
Test: abundance fitness (aPCA) (normalised: wild type 0, dead -1); higher = more abundant; growth selection in yeast, the domain comes from the species named
Conditions: Homo sapiens

Abundance fitness of substitutions, site by site:
Q6: W -0.498 ± 0.071 | S -0.221 ± 0.042 | M -0.015 ± 0.09 | H -0.852 ± 0.11 | F -0.184 ± 0.069 | L 0.037 ± 0.036 | E -0.26 ± 0.053 | T -0.172 ± 0.054 | C -0.118 ± 0.067 | K -0.96 ± 0.13 | I 0.078 ± 0.091 | N -0.844 ± 0.2 | D -0.678 ± 0.31 | P -0.739 ± 0.12 | A -0.076 ± 0.041 | V -0.069 ± 0.036
E7: K -0.494 ± 0.28 | D 0.031 ± 0.073 | N -0.177 ± 0.14 | F -0.252 ± 0.063 | P -0.891 ± 0.097 | W -0.288 ± 0.05 | A -0.071 ± 0.044 | S -0.163 ± 0.038 | Q -0.072 ± 0.054 | I -0.161 ± 0.12 | T -0.09 ± 0.046 | V -0.172 ± 0.033 | R -0.141 ± 0.03 | M -0.098 ± 0.057 | G -0.315 ± 0.029 | Y -0.282 ± 0.085
G10: A -0.068 ± 0.035 | T -0.411 ± 0.069 | R -0.085 ± 0.033 | K -0.041 ± 0.051 | I -0.562 ± 0.23 | E -0.096 ± 0.038 | P -0.978 ± 0.13 | D -0.196 ± 0.087 | V -0.383 ± 0.037 | M -0.096 ± 0.059 | Q 0.01 ± 0.057 | L -0.158 ± 0.03 | W -0.464 ± 0.045 | H -0.07 ± 0.085 | N 0.028 ± 0.075 | F -0.272 ± 0.079 | C -0.079 ± 0.05
Y13: I -0.022 ± 0.074 | E 0 ± 0.048 | A -0.085 ± 0.039 | C -0.138 ± 0.076 | G -0.119 ± 0.028 | F 0.014 ± 0.03 | D -0.064 ± 0.052 | H -0.114 ± 0.088
L9: V -0.013 ± 0.035 | P -0.815 ± 0.096 | R -0.047 ± 0.037 | T -0.11 ± 0.055 | I -0.081 ± 0.13 | S -0.174 ± 0.046 | K -0.061 ± 0.096 | Q 0.016 ± 0.055 | G -0.373 ± 0.035 | M 0.011 ± 0.038 | N -0.08 ± 0.079 | D -0.368 ± 0.095 | A -0.08 ± 0.053 | E -0.117 ± 0.067 | Y -0.133 ± 0.082
P12: T -0.56 ± 0.077 | M -0.903 ± 0.12 | A -0.3 ± 0.033 | Y -0.707 ± 0.16 | F -0.949 ± 0.22 | E -0.478 ± 0.069 | L -0.955 ± 0.085 | R -0.969 ± 0.078 | G -0.577 ± 0.041 | D -0.34 ± 0.1 | S -0.229 ± 0.036 | N -0.542 ± 0.2 | K -0.762 ± 0.19 | V -0.724 ± 0.035 | I -0.912 ± 0.33 | W -0.98 ± 0.14 | C -0.494 ± 0.072
E5: V -0.093 ± 0.042 | N -0.897 ± 0.24 | D -0.371 ± 0.074 | Y -0.149 ± 0.096 | M -0.281 ± 0.077 | L -0.45 ± 0.05 | K -0.806 ± 0.22 | R -0.913 ± 0.078 | F -0.419 ± 0.088 | I 0.004 ± 0.064 | T -0.347 ± 0.093 | P -0.958 ± 0.19 | W -0.442 ± 0.094 | Q -0.485 ± 0.074 | C -0.288 ± 0.07 | A -0.608 ± 0.058 | H -0.354 ± 0.13 | S -0.742 ± 0.057
I11: K -1.21 ± 0.44 | L -0.191 ± 0.035 | T -0.75 ± 0.089 | H -0.644 ± 0.25 | A -0.651 ± 0.058 | S -0.842 ± 0.075 | N -0.818 ± 0.22 | C -0.487 ± 0.058 | R -0.808 ± 0.062 | Y -0.238 ± 0.061 | V -0.342 ± 0.031 | P -0.928 ± 0.13 | F -0.263 ± 0.071 | D -0.921 ± 0.34 | M -0.312 ± 0.045 | E -0.924 ± 0.13 | G -0.752 ± 0.046 | Q -1.01 ± 0.33
R3: V -0.262 ± 0.044 | Q -0.05 ± 0.048 | W -0.081 ± 0.047 | H -0.098 ± 0.08 | P -0.517 ± 0.068 | M -0.158 ± 0.062 | K -0.083 ± 0.071 | N -0.373 ± 0.31 | S -0.214 ± 0.038 | L -0.182 ± 0.041 | Y -0.19 ± 0.077
K4: F -0.131 ± 0.071 | C -0.27 ± 0.055 | A -0.063 ± 0.044 | T -0.067 ± 0.1 | P -0.326 ± 0.067 | N -0.032 ± 0.2 | R -0.029 ± 0.03 | Y -0.1 ± 0.073 | H -0.003 ± 0.11 | Q -0.106 ± 0.084 | V -0.045 ± 0.038 | W -0.12 ± 0.041 | S -0.026 ± 0.035 | E -0.072 ± 0.071 | I 0.054 ± 0.062 | D -0.104 ± 0.063
R8: A -0.056 ± 0.035 | H -0.21 ± 0.1 | F -0.368 ± 0.1 | T -0.117 ± 0.064 | N -0.191 ± 0.12 | C -0.355 ± 0.064 | G -0.363 ± 0.036 | E -0.054 ± 0.052 | I -0.222 ± 0.1 | L -0.06 ± 0.035 | P -0.596 ± 0.07 | D -0.185 ± 0.099 | M -0.133 ± 0.058 | K -0.024 ± 0.064 | Q -0.158 ± 0.061
